# Target: GLP-1 receptor (on pancreatic islets of C57BL/6J mice) (mouse (islets from C57BL/6J mice)) (UniProt O35659)
substance,measurement,value
glucagon like peptide-1 (GLP-1) (ligand),"Insulin Secretion ng/islet/hour (glucose-stimulated insulin secretion, 16.7 mM glucose + 10 nM peptide) (ng/islet/hour)",5.4
